Blank lines part the entries; values can stand above or below the substance they belong to.
How the values were obtained:
[1] = target: A296C (single-Cys mutant of FT-HT-Xa) (S. cerevisiae) (UniProt D6VTK4); assay: cross-linking
[2] = target: A296C (single-Cys mutant of FT-HT-Xa) (S. cerevisiae) (UniProt D6VTK4); assay: SDS-PAGE and western blot of membranes
[3] = target: A296C (single-Cys mutant of FT-HT-Xa) (S. cerevisiae) (UniProt D6VTK4); assay: cross-linking; remark: listed apart in the source
[4] = target: A296C (single-Cys mutant of FT-HT-Xa) (S. cerevisiae) (UniProt D6VTK4); assay: cross-linking; remark: listed apart in the source
[5] = target: L64C (single-Cys mutant of FT-HT-Xa) (S. cerevisiae) (UniProt D6VTK4); assay: cross-linking
[6] = target: L64C (single-Cys mutant of FT-HT-Xa) (S. cerevisiae) (UniProt D6VTK4); assay: SDS-PAGE and western blot of membranes
[7] = target: L64C (single-Cys mutant of FT-HT-Xa) (S. cerevisiae) (UniProt D6VTK4); assay: cross-linking; remark: listed apart in the source
[8] = target: L64C (single-Cys mutant of FT-HT-Xa) (S. cerevisiae) (UniProt D6VTK4); assay: cross-linking; remark: listed apart in the source
[9] = target: L291C (single-Cys mutant of FT-HT-Xa) (S. cerevisiae) (UniProt D6VTK4); assay: cross-linking
[10] = target: L291C (single-Cys mutant of FT-HT-Xa) (S. cerevisiae) (UniProt D6VTK4); assay: SDS-PAGE and western blot of membranes
[11] = target: L291C (single-Cys mutant of FT-HT-Xa) (S. cerevisiae) (UniProt D6VTK4); assay: cross-linking; remark: listed apart in the source
[12] = target: L291C (single-Cys mutant of FT-HT-Xa) (S. cerevisiae) (UniProt D6VTK4); assay: cross-linking; remark: listed apart in the source
[13] = target: M294C (single-Cys mutant of FT-HT-Xa) (S. cerevisiae) (UniProt D6VTK4); assay: cross-linking
[14] = target: M294C (single-Cys mutant of FT-HT-Xa) (S. cerevisiae) (UniProt D6VTK4); assay: SDS-PAGE and western blot of membranes
[15] = target: M294C (single-Cys mutant of FT-HT-Xa) (S. cerevisiae) (UniProt D6VTK4); assay: cross-linking; remark: listed apart in the source
[16] = target: M294C (single-Cys mutant of FT-HT-Xa) (S. cerevisiae) (UniProt D6VTK4); assay: cross-linking; remark: listed apart in the source
[17] = target: S292C (single-Cys mutant of FT-HT-Xa) (S. cerevisiae) (UniProt D6VTK4); assay: cross-linking
[18] = target: S292C (single-Cys mutant of FT-HT-Xa) (S. cerevisiae) (UniProt D6VTK4); assay: SDS-PAGE and western blot of membranes
[19] = target: S292C (single-Cys mutant of FT-HT-Xa) (S. cerevisiae) (UniProt D6VTK4); assay: cross-linking; remark: listed apart in the source
[20] = target: S292C (single-Cys mutant of FT-HT-Xa) (S. cerevisiae) (UniProt D6VTK4); assay: cross-linking; remark: listed apart in the source
[21] = target: S293C (single-Cys mutant of FT-HT-Xa) (S. cerevisiae) (UniProt D6VTK4); assay: cross-linking
[22] = target: S293C (single-Cys mutant of FT-HT-Xa) (S. cerevisiae) (UniProt D6VTK4); assay: SDS-PAGE and western blot of membranes
[23] = target: S293C (single-Cys mutant of FT-HT-Xa) (S. cerevisiae) (UniProt D6VTK4); assay: cross-linking; remark: listed apart in the source
[24] = target: S293C (single-Cys mutant of FT-HT-Xa) (S. cerevisiae) (UniProt D6VTK4); assay: cross-linking; remark: listed apart in the source
[25] = target: T65C (single-Cys mutant of FT-HT-Xa) (S. cerevisiae) (UniProt D6VTK4); assay: cross-linking
[26] = target: T65C (single-Cys mutant of FT-HT-Xa) (S. cerevisiae) (UniProt D6VTK4); assay: SDS-PAGE and western blot of membranes
[27] = target: T65C (single-Cys mutant of FT-HT-Xa) (S. cerevisiae) (UniProt D6VTK4); assay: cross-linking; remark: listed apart in the source
[28] = target: T65C (single-Cys mutant of FT-HT-Xa) (S. cerevisiae) (UniProt D6VTK4); assay: cross-linking; remark: listed apart in the source
[29] = target: W295C (single-Cys mutant of FT-HT-Xa) (S. cerevisiae) (UniProt D6VTK4); assay: cross-linking
[30] = target: W295C (single-Cys mutant of FT-HT-Xa) (S. cerevisiae) (UniProt D6VTK4); assay: SDS-PAGE and western blot of membranes
[31] = target: W295C (single-Cys mutant of FT-HT-Xa) (S. cerevisiae) (UniProt D6VTK4); assay: cross-linking; remark: listed apart in the source
[32] = target: W295C (single-Cys mutant of FT-HT-Xa) (S. cerevisiae) (UniProt D6VTK4); assay: cross-linking; remark: listed apart in the source

percent dimer [1]: 82.1% | percent dimer [2]: 14.8% | percent dimer [3]: 91.1% | percent dimer [4]: 73.6%
Substance: A296C (single-Cys mutant of FT-HT-Xa) (from UniProt D6VTK4 1-431) (receptor)

percent dimer [5]: 13.6% | percent dimer [6]: 15.8% | percent dimer [7]: 11.3% | percent dimer [8]: 14.6%
Substance: L64C (single-Cys mutant of FT-HT-Xa) (from UniProt D6VTK4 1-431) (receptor)

percent dimer [9]: 44.5% | percent dimer [10]: 31.8% | percent dimer [11]: 66.4% | percent dimer [12]: 52%
Substance: L291C (single-Cys mutant of FT-HT-Xa) (from UniProt D6VTK4 1-431) (receptor)

percent dimer [13]: 50.8% | percent dimer [14]: 27% | percent dimer [15]: 75.6% | percent dimer [16]: 57.8%
Substance: M294C (single-Cys mutant of FT-HT-Xa) (from UniProt D6VTK4 1-431) (receptor)

percent dimer [17]: 65.9% | percent dimer [18]: 30.2% | percent dimer [19]: 82.3% | percent dimer [20]: 75.5%
Substance: S292C (single-Cys mutant of FT-HT-Xa) (from UniProt D6VTK4 1-431) (receptor)

percent dimer [21]: 44% | percent dimer [22]: 21.1% | percent dimer [23]: 70.2% | percent dimer [24]: 38.5%
Substance: S293C (single-Cys mutant of FT-HT-Xa) (from UniProt D6VTK4 1-431) (receptor)

percent dimer [25]: 12.8% | percent dimer [26]: 16.2% | percent dimer [27]: 14.4% | percent dimer [28]: 15.9%
Substance: T65C (single-Cys mutant of FT-HT-Xa) (from UniProt D6VTK4 1-431) (receptor)

percent dimer [29]: 86.3% | percent dimer [30]: 15.7% | percent dimer [31]: 95.2% | percent dimer [32]: 76.2%
Substance: W295C (single-Cys mutant of FT-HT-Xa) (from UniProt D6VTK4 1-431) (receptor)

Source: article PMC2783235
